By Kd is commonly meant a measure of binding affinity in units of concentration.

The values below come from PMC5120205 (Nature Communications, 2016).

Details in all cases: both partners purified
In assay [1] the target is T1, recombinant IsdB NEAT1 domain (Staphylococcus aureus USA300, UniProt Q2FHV2).
T1 construct: not shown: FLAG, C-terminal, kept
Nature of the assay: ELISA. Background: ELISA stands for enzyme-linked immunosorbent assay.

In assay [2] the target is T2, recombinant full-length IsdB (Staphylococcus aureus USA300, UniProt Q2FHV2).
T2 construct: not shown: FLAG, C-terminal, kept
Nature of the assay: SPR. For orientation: SPR reads the build-up and loss of mass on a sensor chip optically.

In assay [3] the target is T3, recombinant full-length IsdB (Staphylococcus aureus USA300, UniProt Q2FHV2).
T3 construct: not shown: FLAG, C-terminal, kept
As to the kind of experiment: SPR. This is another data set of the same source.

The target in assay [4] is T2, recombinant full-length IsdB. As to the kind of experiment: BLI; Octet; antibody captured on anti-species sensors (15 ug/ml), 32 nM rIsdB bound, then 1 uM Hb or buffer. A general note: BLI is a label-free optical method that tracks binding on a fibre tip over time.
The target in the next assay is IsdB NEAT2 domain (Staphylococcus aureus USA300, UniProt Q2FHV2). Nature of the assay: SPR.
The target of assay [5] is T3, recombinant full-length IsdB. Nature of the assay: ELISA.
Assay [6] addresses T4, recombinant full-length IsdB (Staphylococcus aureus USA300, UniProt Q2FHV2).
T4 construct: not shown: FLAG, C-terminal, kept
Nature of the assay: ELISA. This is another data set of the same source.

The target in assay [7] is T5, recombinant IsdB NEAT2 domain (Staphylococcus aureus USA300, UniProt Q2FHV2).
T5 construct: not shown: FLAG, C-terminal, kept
As to the kind of experiment: ELISA.

B1: D4-10-N1 (antibody, V domains shown)
VH: QVQLQESGPGLVKPSETLSLICTVSGGSISSSSYYWGWIRQTPERNLEWIGIIYFSGTTYYNPSLQSRVSMSLDRSTNRFSLRLSSVTAADTAIYYCAKPKSRDRGGPGDDYFGMDVWGQGIMVTVSS
VL: DIQLTQSPSFLSASVADRVTITCRASQAVRSSLAWYQQKPGKAPQLLIYSASTLENGVSSRFSGSGPGTEFTLTISSLQPEDVGTYYCQQLNTYPFTFGPGTKVEIK
Consider B1, for which the binding result in assay [1] is on record as “binds”. Also, the Kd in assay [2] is less than 1 pM.

B2: D4-10-N1 antibody (human IgG) (antibody, V domains shown)
VH: QVQLQESGPGLVKPSETLSLICTVSGGSISSSSYYWGWIRQTPERNLEWIGIIYFSGTTYYNPSLQSRVSMSLDRSTNRFSLRLSSVTAADTAIYYCAKPKSRDRGGPGDDYFGMDVWGQGIMVTVSS
VL: DIQLTQSPSFLSASVADRVTITCRASQAVRSSLAWYQQKPGKAPQLLIYSASTLENGVSSRFSGSGPGTEFTLTISSLQPEDVGTYYCQQLNTYPFTFGPGTKVEIK
With B2, the binding result in assay [3] is on record as “binds”.

B3: D4-10-N1 germline-reverted (IGHV4-39) (antibody, V domains shown)
VH: QLQLQESGPGLVKPSETLSLTCTVSGGSISSSSYYWGWIRQPPGKGLEWIGSIYYSGSTYYNPSLKSRVTISVDTSKNQFSLKLSSVTAADTAVYYCAKPKSRDRGGPGDDYFGMDVWGQGIMVTVSS
VL: DIQLTQSPSFLSASVADRVTITCRASQAVRSSLAWYQQKPGKAPQLLIYSASTLENGVSSRFSGSGPGTEFTLTISSLQPEDVGTYYCQQLNTYPFTFGPGTKVEIK
For B3, in assay [3], the binding result was “binds”.

B4: germlined D4-10 (NEAT1) (antibody, V domains shown)
VH: QLQLQESGPGLVKPSETLSLTCTVSGGSISSSSYYWGWIRQPPGKGLEWIGSIYYSGSTYYNPSLKSRVTISVDTSKNQFSLKLSSVTAADTAVYYCAKPKSRDRGGPGDDYFGMDVWGQGIMVTVSS
VL: DIQLTQSPSFLSASVADRVTITCRASQAVRSSLAWYQQKPGKAPQLLIYSASTLENGVSSRFSGSGPGTEFTLTISSLQPEDVGTYYCQQLNTYPFTFGPGTKVEIK
Take B4: the binding result in assay [4] is reported as “binds”.

B5: D2-06-N2 (IGHV1-69*01 germline-reverted) (antibody, V domains shown)
VH: QVQLVQSGAEVKKPGSSVKVSCKASGGTFSSYAISWVRQAPGQGLEWMGGIIPIFGTANYAQKFQGRVTITADESTSTAYMELSSLRSEDTAVYYCARDRPPGAQFDTWGQGTLVTVSS
VL: not shown
Consider B5, for which the other in the assay with IsdB NEAT2 domain was more than 600 fold.

B6: D2-06-N2 (IGHV1-69*01 germline-reverted) variant T56I (antibody, V domains shown)
VH: QVQLVQSGAEVKKPGSSVKVSCKASGGTFSSYAISWVRQAPGQGLEWMGGIIPIFGIANYAQKFQGRVTITADESTSTAYMELSSLRSEDTAVYYCARDRPPGAQFDTWGQGTLVTVSS
VL: not shown
On to B6, for which the binding result in assay [5] is on record as “binds”.

B7: D2-06-N2 (IGHV1-69*01 germline-reverted) variant G50R (antibody, V domains shown)
VH: QVQLVQSGAEVKKPGSSVKVSCKASGGTFSSYAISWVRQAPGQGLEWMGRIIPIFGTANYAQKFQGRVTITADESTSTAYMELSSLRSEDTAVYYCARDRPPGAQFDTWGQGTLVTVSS
VL: not shown
As for B7, in assay [6], the binding result is on record as “no binding”.

B8: D2-06-N2 (IGHV1-69*01 germline-reverted) variant F54L (antibody, V domains shown)
VH: QVQLVQSGAEVKKPGSSVKVSCKASGGTFSSYAISWVRQAPGQGLEWMGGIIPILGTANYAQKFQGRVTITADESTSTAYMELSSLRSEDTAVYYCARDRPPGAQFDTWGQGTLVTVSS
VL: not shown
As to B8, the binding result in assay [5] is listed as “binds”.

B9: D4-30-N2 (antibody, V domains shown)
VH: QVQLVQSGSEVKKPGSSVTLSCKASGDTFNTHTYSWVRQAPGQRLEWIGGIMPIFAASKSAPHLQDRLTITANKATRTAYMELTSLTSDDSGVYYCARDGRGALQYWGQGTLVTVSS
VL: DIVMTQSPLSLPVTLGQPASISCSSAQSLVHSDGDSYLTWFHQRPGQSPRRLIYKVSIRDAGVPDRFSGSGSGTDFTLKISRVEAEDVGVYYCMQATHWPYTFGQGTKLEIK
Consider B9, for which the binding result in assay [7] is on record as “binds”.

B10: D4-30-N2 antibody (human IgG) (antibody, V domains shown)
VH: QVQLVQSGSEVKKPGSSVTLSCKASGDTFNTHTYSWVRQAPGQRLEWIGGIMPIFAASKSAPHLQDRLTITANKATRTAYMELTSLTSDDSGVYYCARDGRGALQYWGQGTLVTVSS
VL: DIVMTQSPLSLPVTLGQPASISCSSAQSLVHSDGDSYLTWFHQRPGQSPRRLIYKVSIRDAGVPDRFSGSGSGTDFTLKISRVEAEDVGVYYCMQATHWPYTFGQGTKLEIK
B10: the binding result (in assay [5]; in the assay with IsdB NEAT2 domain) was “binds” in each case.
